Changes are numbered by the printed parent chain. Numbers in names are those of the source. Like-named read-outs stand apart in the source and are kept apart here. Ends that are not written are not given here. * marks the point of attachment. FITC = O=C1OC2(c3ccc(O)cc3Oc3cc(O)ccc32)c2ccc(NC(=S)*)cc21
T1: GST-Aim21^504,507,509E (S. cerevisiae, UniProt P40563 1-679, Aim21^504,507,509E | Aim21^504,507,509E | Aim21^504,507,509E)
T1 sequence (looked up): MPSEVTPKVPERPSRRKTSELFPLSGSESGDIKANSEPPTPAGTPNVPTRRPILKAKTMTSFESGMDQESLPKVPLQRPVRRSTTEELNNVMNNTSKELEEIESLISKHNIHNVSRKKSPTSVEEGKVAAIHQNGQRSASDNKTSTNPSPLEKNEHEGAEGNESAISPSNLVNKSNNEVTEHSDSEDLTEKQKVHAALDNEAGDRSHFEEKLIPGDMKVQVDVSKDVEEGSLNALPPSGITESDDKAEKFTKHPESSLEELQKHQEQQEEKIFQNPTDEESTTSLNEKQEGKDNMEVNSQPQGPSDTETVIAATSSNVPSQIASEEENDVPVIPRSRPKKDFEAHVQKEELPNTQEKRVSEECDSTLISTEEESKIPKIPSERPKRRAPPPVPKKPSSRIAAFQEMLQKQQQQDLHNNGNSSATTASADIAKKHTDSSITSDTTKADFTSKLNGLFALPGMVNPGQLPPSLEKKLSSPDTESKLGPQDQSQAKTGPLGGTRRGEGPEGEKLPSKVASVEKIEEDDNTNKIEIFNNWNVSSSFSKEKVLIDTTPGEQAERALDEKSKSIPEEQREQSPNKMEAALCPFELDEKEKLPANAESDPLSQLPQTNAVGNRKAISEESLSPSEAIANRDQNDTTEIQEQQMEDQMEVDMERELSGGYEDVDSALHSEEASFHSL

T2: His-tagged Aim21 (His-Aim21) (S. cerevisiae, UniProt P40563 1-679)
T2 sequence (looked up): T1 sequence (looked up) with E504R, E507R, E509R

T3: His-Tda2 I103Q (S. cerevisiae, UniProt P40045 2-126, I103Q)
T3 sequence: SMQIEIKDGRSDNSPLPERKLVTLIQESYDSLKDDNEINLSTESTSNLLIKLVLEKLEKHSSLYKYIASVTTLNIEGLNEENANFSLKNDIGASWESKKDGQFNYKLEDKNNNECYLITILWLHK

T4: His-Tda2 K107E (S. cerevisiae, UniProt P40045 2-126, K107E)
T4 sequence: T3 sequence with Q102I, K106E

T5: Aim21^1-600-GST (S. cerevisiae, UniProt P40563 1-600)
T5 sequence (looked up): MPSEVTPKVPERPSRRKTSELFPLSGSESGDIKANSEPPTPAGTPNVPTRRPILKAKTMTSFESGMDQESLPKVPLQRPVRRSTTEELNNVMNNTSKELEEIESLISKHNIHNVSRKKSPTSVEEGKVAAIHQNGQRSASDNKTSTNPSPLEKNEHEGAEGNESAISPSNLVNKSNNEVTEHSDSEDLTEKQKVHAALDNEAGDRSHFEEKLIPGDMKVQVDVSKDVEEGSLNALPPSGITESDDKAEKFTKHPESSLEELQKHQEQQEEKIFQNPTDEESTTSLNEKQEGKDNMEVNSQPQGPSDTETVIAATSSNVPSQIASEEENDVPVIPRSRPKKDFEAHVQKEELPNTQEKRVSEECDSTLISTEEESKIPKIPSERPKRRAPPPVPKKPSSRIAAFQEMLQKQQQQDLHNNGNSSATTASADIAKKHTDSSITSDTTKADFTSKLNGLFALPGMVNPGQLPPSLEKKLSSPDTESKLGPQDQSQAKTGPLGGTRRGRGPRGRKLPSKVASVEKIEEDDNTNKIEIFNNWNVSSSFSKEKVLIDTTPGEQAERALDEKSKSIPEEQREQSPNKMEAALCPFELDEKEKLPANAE

B1: 6-histidine-tagged Tda2 (His-Tda2) (natural protein, S. cerevisiae)
chain: T3 sequence with Q102I
B2: FITC-Aim21^CPI+TBR with 25 µM His-Tda2 (reconstituted Tda2-Aim21 peptide complex) (complex, S. cerevisiae)
peptide: KTGPLGGTRRGRGPRGRKLPSKVASVEKIEEDDNTNKIEIFNNWNVS
chain: T3 sequence with Q102I
modifications: FITC label (printed FITC-KTGPLGG...)
B3: His-Tda2 D101A (natural protein, S. cerevisiae)
chain: T3 sequence with D100A, Q102I
B4: His-Tda2 F86V (natural protein, S. cerevisiae)
chain: T3 sequence with F85V, Q102I
B5: 6-histidine-tagged actin capping protein (His-Cap1/2 heterodimer) (complex, S. cerevisiae)
chain 1: MSSSKFEEVINKIINDSPPGELREVYDDLIKITSENSKNTILDAIENYNVQNCIPIEVNGNSVIISKYNKEGAKFFDPVNSVIFSVNHLERKGLDIEPYEFTHAKIEKGQLKELHDKLHEYLLQSFPGDVSFAVYPVPEEISKISIIIVSTKYNPNNFWNGHWRSSYIYDLETRELSGQISTQVHYYEDGNVSFQSGKDINQSNVDDVVCTIRDIETNFENDLDLSFFDLNEKQFKALRRRLPVTRSKINWGSAIGSYRLGKNAAEGK
chain 2: MSDAQFDAALDLLRRLNPTTLQENLNNLIELQPNLAQDLLSSVDVPLSTQKDSADSNREYLCCDYNRDIDSFRSPWSNTYYPELSPKDLQDSPFPSAPLRKLEILANDSFDVYRDLYYEGGISSVYLWDLNEEDFNGHDFAGVVLFKKNQSDHSNWDSIHVFEVTTSPSSPDSFNYRVTTTIILHLDKTKTDQNSHMMLSGNLTRQTEKDIAIDMSRPLDVIFTSHVANLGSLIEDIESQMRNLLETVYFEKTRDIFHQTKNAAIASSAEEANKDAQAEVIRGLQSL

Assays:
[1] = target: B5; test: fluorescence polarisation
[2] = target: B1; test: fluorescence polarisation
GST-Aim21^504,507,509E = target: T1, GST-Aim21^504,507,509E; test: pull-down
[3] = target: T2, His-tagged Aim21 (His-Aim21); test: SEC + other: sucrose density gradient fractionation
[4] = target: the molecule itself; test: as above
[5] = target: B5; test: fluorescence polarisation; remark: listed apart in the source
His-Tda2 F86V [6] = target: B4; test: fluorescence polarisation
SEC = target: the molecule itself; test: SEC
His-Tda2 I103Q = target: T3, His-Tda2 I103Q; test: pull-down
His-Tda2 K107E = target: T4, His-Tda2 K107E; test: pull-down
His-Tda2 F86V [7] = target: B4; test: pull-down
Aim21^1-600-GST = target: T5, Aim21^1-600-GST; test: pull-down

With {FITC}-KTGPLGGTRRGRGPRGRKLPSKVASVEKIEEDDNTNKIEIFNNWNVS [FITC-labeled Aim21 peptide spanning AA 493–539, with the CPI motif and the TBR (FITC-Aim21^CPI+TBR)] the Kd [1] was 3100 nM and the binding result [2] was “binds”.

With B1 the binding result (GST-Aim21^504,507,509E) was “binds”, the “stoichiometry N” value [3] was 2 Aim21 molecules per Tda2 homodimer and the “stoichiometry N” value [4] was 2.

B2 gave a Kd [5] of 250 nM.

{FITC}-KIEIFNNWNVS [FITC-labeled Aim21 peptide spanning AA 529–539 (FITC-Aim21)]: binds (His-Tda2 F86V [6]).

B3: binds (SEC).

KLPSKVASVEKIEEDDNTNKIEIFNNWNVSSSFSKEKVLIDTTPGE (domain or fragment, S. cerevisiae, UniProt P40563 510-555, looked up) [GST-Aim21^510-555 (wild type)]: binds (His-Tda2 I103Q); binds (His-Tda2 K107E); binds (His-Tda2 F86V [7]).

B4: binds (SEC).

B5: binds (Aim21^1-600-GST).
